Results reported in patent US20230220381 (published 2023).

B1: PC (positive control TBA 15mer) (ssDNA)
DNA: GGTTGGTGTGGTTGG
B2: TBA1F (ssDNA)
DNA: CGTCGAGGCCCCTTCTTCTTCGTCTTCTTCTTAGGAGGTGGTGTGGTTGGTTTTACACGTCACGCCTTTTTTTTT
modifications: branched DNA-encoded construct: code strand with branching unit BU; aptamer branch …
B3: NCS (ssDNA)
DNA: GGTTGGTGTTGTTTG
B4: NCL (ssDNA)
DNA: CGTCGAGGCCCCTTCTTCTTCGTCTTCTTCTTAGGATACACGTCACGCCTTTTTTTTT

Tests used:
Thrombin [1] = biological target: T1, Thrombin (Homo sapiens, UniProt P00734;P00734 P00734:328-363,P00734:364-622); experiment: FP; 20 mM Tris, 140 mM NaCl, 20 mM KCl, 1 mM CaCl2, 1 mM MgCl2, 0.1% Triton X, room temperature
Thrombin [2] = biological target: T1, Thrombin; experiment: FP; no binding observed with up to 2 uM thrombin

Row | Binder | Kd (Thrombin [1]) [nM] | binding result (Thrombin [2])
1 | B1 | 10 | 
2 | B2 | 13 | 
3 | B3 |  | no binding
4 | B4 |  | no binding
